According to publication PMC12014896 (2025):
Substitutions are numbered along the chain they refer to.

Target: SARS-CoV-2 spike RBD (Wuhan-Hu-1) (Severe acute respiratory syndrome …, UniProt P0DTC2)
Test: SPR

B1: COVIC-57 (antibody)
chain 1: QVQLQESGGGLVQAGGSLRLSCAASGRTFSEYAMGWFRQAPGKEREFVATISWSGGSTYYTDSVKGRFTISRDNAKNTVYLQMNSLKPDDTAVYYCAAAGLGTVVSEWDYDYDYWGQGTQVTVSSGGGGSGGGGSASTKGPSVFPLAPSSKSTSGGTAALGCLVKDYFPEPVTVSWNSGALTSGVHTFPAVLQSSGLYSLSSVVTVPSSSLGTQTYICNVNHKPSNTKVDKKVEPKSCDKTHTKKKPLDGEYFTLQIRGRERFEMFRELNEALELKDAQAGKEPG
chain 2: QVQLQESGGGLVQAGGSLRLSCAASGRTFSEYAMGWFRQAPGKEREFVATISWSGGSTYYTDSVKGRFTISRDNAKNTVYLQMNSLKPDDTAVYYCAAAGLGTVVSEWDYDYDYWGQGTQVTVSSGGGGSGGGGSKRTVAAPSVFIFPPSDEQLKSGTASVVCLLNNFYPREAKVQWKVDNALQSGNSQESVTEQDSKDSTYSLSSTLTLSKADYEKHKVYACEVTHQGLSSPVTKSFNRGEC
Question: Which Kd does the source give for B1 here?
Answer: 204 nM

B2: COVIC-54 (antibody, V domains shown)
VH: QVQLQESGGGLVQAGGSLRLSCAASGRTFSEYAMGWFRQAPGKEREFVATISWSGGSTYYTDSVKGRFTISRDNAKNTVYLQMNSLKPDDTAVYYCAAAGLGTVVSEWDYDYDYWGQGTQVTVSS
Question: For B2, which Kd is on record?
Answer: 244 nM

B3: COVIC-30 (antibody, V domains shown)
VH: EVQLVESGGGLVQPGGSLRLSCAASGFTVSSNYMSWVRQAPGKGLEWVSVIYSGGSTYYADSVKGRFTISRDNSKNTLYLQMNSLRAEDTAVYYCARVEWAAAGTFYWGQGTLVTVSS
VL: QSALTQEPSLTVSPGGTVTLTCGSSTGAVTSGHYPYWFQQKPGQAPRTLIYDTSNKRSWTPARFSGSLLGGKAALTLSGAQPEDEAEYYCLLSYSGVWVFGGGTKLTVL
Question: With B3 as the binder, how does the Kd read?
Answer: 4.1 nM

B4: COVIC-368 (antibody, V domains shown)
VH: QVQLVQSGAEVKKPGASVKVSCKAYGYTFTSHYMHWVRQAPGQGLEWMGIIDSSGGGASYPQKFQGRVTLTRDTSSSTVYMELSSLRSEDTAVYYCAKAHSTNWYGWFDPWGQGTLVTVSS
VL: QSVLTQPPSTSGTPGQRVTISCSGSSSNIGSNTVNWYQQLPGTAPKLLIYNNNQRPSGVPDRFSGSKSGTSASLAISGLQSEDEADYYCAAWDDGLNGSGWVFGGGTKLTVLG
Question: With B4 as the binder, how does the Kd read?
Answer: 0.436 nM

B5: COVIC-291 (antibody, V domains shown)
VH: EVQLVESGGGLVQPGRSLRLSCAASGFTFDDYAMHWVRQAPGKGLEWVSGISWNSDSIDYADSVKGRFTISRDNAKNSLYLQMNSLRAEDTALYYCAKDRGYEILTPASFDYWGQGTLVTVSS
VL: DIQMTQSPSSLSASVGDRVTITCRASQSISSYLNWFQHKPGKAPKLLIYGASSLQSGVPSRFSGSGSGTDFTLTISSLQPEDFATYYCQQSYSTPPYTFGQGTKLEIK
Question: For B5, which Kd is on record?
Answer: 6.83 nM

B6: COVIC-58 (antibody)
chain 1: QVQLQESGGGLVQAGGSLRLSCAASGRTFSEYAMGWFRQAPGKEREFVATISWSGGSTYYTDSVKGRFTISRDNAKNTVYLQMNSLKPDDTAVYYCAAAGLGTVVSEWDYDYDYWGQGTQVTVSSGGGGSGGGGSASTKGPSVFPLAPSSKSTSGGTAALGCLVKDYFPEPVTVSWNSGALTSGVHTFPAVLQSSGLYSLSSVVTVPSSSLGTQTYICNVNHKPSNTKVDKKVEPKSCDKTHTAPELLGGPSVFLFPPKPKDTLMISRTPEVTCVVVDVSHEDPEVKFNWYVDGVEVHNAKTKPREEQYNSTYRVVSVLTVLHQDWLNGKEYKCKVSNKALPAPIEKTISKAKGQPREPQVYTLPPSRDELTKNQVSLTCLVKGFYPSDIAVEWESNGQPENNYKTTPPVLDSDGSFFLYSKLTVDKSRWQQGNVFSCSVMHEALHNHYTQKSLSLSPGKKKKPLDGEYFTLQIRGRERFEMFRELNEALELKDAQAGKEPG
chain 2: B1 chain 2
Question: How did the Kd turn out when B6 was run?
Answer: 139 nM

B7: COVIC-125 (antibody)
chain 1: QVQLQESGGGLVQAGGSLRLSCAASGRTFSEYAMGWFRQAPGKEREFVATISWSGGSTYYTDSVKGRFTISRDNAKNTVYLQMNSLKPDDTAVYYCAAAGLGTVVSEWDYDYDYWGQGTQVTVSSGGSGGSQVQLQESGGGLVQAGGSLRLSCAASGRTFSEYAMGWFRQAPGKEREFVATISWSGGSTYYTDSVKGRFTISRDNAKNTVYLQMNSLKPDDTAVYYCAAAGLGTVVSEWDYDYDYWGQGTQVTVSSGGGGSGGGGSASTKGPSVFPLAPSSKSTSGGTAALGCLVKDYFPEPVTVSWNSGALTSGVHTFPAVLQSSGLYSLSSVVTVPSSSLGTQTYICNVNHKPSNTKVDKKVEPKSCDKTHTKKKPLDGEYFTLQIRGRERFEMFRELNEALELKDAQAGKEPGGGGGSGGGGSQVQLQESGGGLVQAGGSLRLSCAASGRTFSEYAMGWFRQAPGKEREFVATISWSGGSTYYTDSVKGRFTISRDNAKNTVYLQMNSLKPDDTAVYYCAAAGLGTVVSEWDYDYDYWGQGTQVTVSSGGSGGSQVQLQESGGGLVQAGGSLRLSCAASGRTFSEYAMGWFRQAPGKEREFVATISWSGGSTYYTDSVKGRFTISRDNAKNTVYLQMNSLKPDDTAVYYCAAAGLGTVVSEWDYDYDYWGQGTQVTVSS
chain 2: B1 chain 2
Question: Which Kd does the source give for B7 here?
Answer: 184 nM

B8: COVIC-66 (antibody)
chain: QVQLQESGGGLVQAGGSLRLSCAASGRTFSEYAMGWFRQAPGKEREFVATISWSGGSTYYTDSVKGRFTISRDNAKNTVYLQMNSLKPDDTAVYYCAAAGLGTVVSEWDYDYDYWGQGTQVTVSSGGSGGSQVQLQESGGGLVQAGGSLRLSCVASGSIFSINAMDWYRQAPGKQRELVAGITSGGSTNYGDFVKGRFTISRDNAKNTVYLQMDSLKPEDTAVYYCAAEVGGWGPPRPDYWGHGTQVTVSSGGGGSGGGGSEPKSCDKTHTCPPCPAPELLGGKKKPLDGEYFTLQIRGRERFEMFRELNEALELKDAQAGKEPG
Question: With B8 as the binder, how does the Kd read?
Answer: 140 nM

B9: COVIC-95 (antibody, V domains shown)
VH: EVQLVESGGGLVQPGGSLRLSCAASGQTFNMGWFRQAPGKEREFVAAIGSGGSTSYADSVKGRFTISADNSKNTAYLQMNSLKPEDTAVYYCWRLGNDYFDYWGQGTLVTVSS
Question: Which Kd does the source give for B9 here?
Answer: 27.5 nM

B10: COVIC-127 (antibody)
chain 1: not shown
chain 2: QVQLQESGGGLVQAGGSLRLSCAASGRTFSEYAMGWFRQAPGKEREFVATISWSGGSTYYTDSVKGRFTISRDNAKNTVYLQMNSLKPDDTAVYYCAAAGLGTVVSEWDYDYDYWGQGTQVTVSSGGSGGSQVQLQESGGGLVQAGGSLRLSCAASGRTFSEYAMGWFRQAPGKEREFVATISWSGGSTYYTDSVKGRFTISRDNAKNTVYLQMNSLKPDDTAVYYCAAAGLGTVVSEWDYDYDYWGQGTQVTVSSGGGGSGGGGSKRTVAAPSVFIFPPSDEQLKSGTASVVCLLNNFYPREAKVQWKVDNALQSGNSQESVTEQDSKDSTYSLSSTLTLSKADYEKHKVYACEVTHQGLSSPVTKSFNRGEC
Question: B10 was tested. Which Kd did it give?
Answer: 106 nM

B11: COVIC-126 (antibody)
chain 1: B7 chain 1
chain 2: B10 chain 2
Question: For B11, which Kd is on record?
Answer: 139 nM

B12: COVIC-266 (antibody, V domains shown)
VH: EVQLVESGGGLVQPGGSLRLSCKASGISVAPHAVTWVRQAPGKGLEWIGVIASNADTYYASWAKGRFTISRDNSKNTLYLQMNSLRAEDTAVYYCARHPGSAGYGYTYYYAMDPWGQGTLVTVSS
VL: DIQMTQSPSSLSASVGDRVTITCKASEDIRYGLNWYQQKPGKAPKLLIYGANTLEAGVPSRFSGSGSGTDFTLTISSLQPEDFATYYCQQGYSTPLTFGGGTKVEIK
Question: Which Kd does the source give for B12 here?
Answer: 2.41 nM

B13: COVIC-321 (antibody)
chain 1: not shown
chain 2: EVQLLESGGGLVQPGGSLRLSCAASGRTFSEYAMGWFRQAPGKGLEFVSTISWSGGSTYYADSVKGRFTISRDNSKNTLYLQMNSLRAEDTAVYYCAAAGLGTVVSEWDYDYDYWGQGTLVTVSSGGGGSGGGGSKRTVAAPSVFIFPPSDEQLKSGTASVVCLLNNFYPREAKVQWKVDNALQSGNSQESVTEQDSKDSTYSLSSTLTLSKADYEKHKVYACEVTHQGLSSPVTKSFNRGEC
Question: For B13, which Kd is on record?
Answer: 30 nM

B14: COVIC-386 (antibody, V domains shown)
VH: B12 VH with I27Y, V29F, A30R, P31H, H32Q, V34M
VL: DIQMTQSPSSLSASVGDRVTITCQASERVFYGIDWYQQKPGKAPKLLIYGASALWHGVPSRFSGSGSGTDYTLTISSLQPEDFATYYCQQGYMVPIGFGGGTKVEIK
Question: With B14 as the binder, how does the Kd read?
Answer: 0.177 nM

B15: COVIC-307 (antibody, V domains shown)
VH: QVQLVQSGAEVKKPGSSVKVSCKASGGTFGISWVRQAPGQGLEWMGRIIPILGTANHAQKFQGRVTITADKSTGTVYMELSSLRSEDTAVYYCARDGDSGSYYETLGFDYWGQGTLVTVSS
VL: QSALTQPPSASGSPGQSVTISCTGTSSDVGGYNYVSWYQQHPGKAPKLMIYEVNKRPSGVPDRFSGSKSGNTASLTVSGLQAEDEADYYCSSYAGSNNLVFGGGTKLTVL
Question: How did the Kd turn out when B15 was run?
Answer: 2.36 nM

B16: COVIC-21 (antibody, V domains shown)
VH: EVQLLESGGGLVQPGGSLRLSCAASGFTFSDFAMAWVRQAPGKGLEWVSAISGSGDITYYADSVKGRFTISRDNSKNTLYLQMNSLRAEDTAVYYCAREADGLHSPWHFDLWGQGTLVTVSS
Question: Which Kd does the source give for B16 here?
Answer: 0.208 nM
